Consider one substance from US20170157165A1.

This test has as its target Human FGF2 (manufactured by Peprotech Inc.) (human) (UniProt P09038). Description: cell-based or functional assay.

Sequence of Human FGF2 (manufactured by Peprotech Inc.) (human) (P09038 135-288 limits assumed): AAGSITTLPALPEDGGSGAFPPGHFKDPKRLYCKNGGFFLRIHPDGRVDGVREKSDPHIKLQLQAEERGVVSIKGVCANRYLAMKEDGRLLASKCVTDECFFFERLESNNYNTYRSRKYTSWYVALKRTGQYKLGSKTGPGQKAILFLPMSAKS

Consider “anti-FGF2 antibody Anti-FGF, basic (Ab-3) Mouse mAb (3H3) (manufactured by Calbiochem)”, for which the inhibitory rate (%) of FGF2-dependent growth of HUVEC cells; 3H3 (1 nM) + FGF2 (500 pM) was 8.5%, the inhibitory rate (%) of FGF2-dependent growth of HUVEC cells; 3H3 (5 nM) + FGF2 (500 pM) turned out to be 30% and the inhibitory rate (%) of FGF2-dependent growth of HUVEC cells; 3H3 (25 nM) + FGF2 (500 pM) turned out to be 100%.
